The values that follow come from paper PMC8618960, “Functionalized Protein Nanotubes Based on the Bacteriophage vB_KleM-RaK2 Tail Sheath Protein” (Nanomaterials, 2021).

Usually kcat stands for the number of substrate molecules converted per active site and unit of time at saturation. For orientation: kcat/Km means the turnover number divided by the Michaelis constant.

Substrate in this series: CC(=O)Nc1ccn([C@H]2C[C@H](O)[C@@H](CO)O2)c(=O)n1
Kind of series: purified protein. The following applies: 10 mM Tris-HCl pH 8.0, 22 °C, free enzyme. Format: biochemical, Escherichia coli.

B1: YqfB (free wild-type YqfB, amidohydrolase YqfB) (Escherichia coli K-12) (protein)
chain: MQPNDITFFQRFQDDILAGRKTITIRDESESHFKTGDVLRVGRFEDDGYFCTIEVTATSTVTLDTLTEKHAEQENMTLTELKKVIADIYPGQTQFYVIEFKCL
notes: free wild-type YqfB
Consider B1, for which the Km entry was “(4.9 ± 0.04) × 10^−4 M”, the kcat is 113 ± 1 s⁻¹ and the kcat/Km was determined as 230000 M⁻¹ s⁻¹.
